Earlier results in paper PMC2409454.

Target: pRb (Homo sapiens) (UniProt P06400)
Chain of UniProt P06400 (P06400 2-928): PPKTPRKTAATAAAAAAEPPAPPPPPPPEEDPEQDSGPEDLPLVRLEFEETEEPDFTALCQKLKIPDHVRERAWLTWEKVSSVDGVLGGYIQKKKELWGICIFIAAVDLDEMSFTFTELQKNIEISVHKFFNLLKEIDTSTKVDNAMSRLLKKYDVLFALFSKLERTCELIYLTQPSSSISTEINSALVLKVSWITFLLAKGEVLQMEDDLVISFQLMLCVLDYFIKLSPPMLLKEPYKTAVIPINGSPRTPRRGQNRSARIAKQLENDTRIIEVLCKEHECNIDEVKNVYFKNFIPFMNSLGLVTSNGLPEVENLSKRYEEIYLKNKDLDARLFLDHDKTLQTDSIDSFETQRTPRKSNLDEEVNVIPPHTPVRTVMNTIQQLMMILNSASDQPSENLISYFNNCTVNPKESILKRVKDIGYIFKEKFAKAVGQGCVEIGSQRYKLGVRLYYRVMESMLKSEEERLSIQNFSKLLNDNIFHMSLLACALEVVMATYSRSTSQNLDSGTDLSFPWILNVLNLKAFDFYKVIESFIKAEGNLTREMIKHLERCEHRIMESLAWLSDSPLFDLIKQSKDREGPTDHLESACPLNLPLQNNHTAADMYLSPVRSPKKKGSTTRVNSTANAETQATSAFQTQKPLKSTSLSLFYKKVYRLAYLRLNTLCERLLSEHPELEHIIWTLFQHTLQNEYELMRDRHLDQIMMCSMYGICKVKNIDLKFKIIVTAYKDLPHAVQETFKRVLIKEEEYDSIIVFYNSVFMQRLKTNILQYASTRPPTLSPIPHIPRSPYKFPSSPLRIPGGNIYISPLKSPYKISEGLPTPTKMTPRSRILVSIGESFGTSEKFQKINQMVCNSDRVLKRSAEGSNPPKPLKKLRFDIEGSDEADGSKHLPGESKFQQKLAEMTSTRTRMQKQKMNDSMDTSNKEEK

For E7 (from UniProt P03129), the Kd is given as 4.5 nM.
